Results: patent US8252981B2 (Athenix Corp., priority 2006, dated 2012)

B1: GRG23(L3P1.B20): GRG23 variant, SEQ ID NO:21; mutation at V206 (protein)
chain: METDRLVIPGSKSITNRALLLAAAAKGTSVLVRPLVSADTSAFKTAIQALGANVSADGDNWVVEGLGQAPHLDADIWCEDAGTVARFLPPFVAAGQGKFTVDGSEQLRRRPLRPLVDGIRHLGARVSSEQLPLTIEASGLAGGEYEIEAHQSSQFASGLIMAAPYARQGLRVRIPNPVSQPYLTMTLRMMRDFGLETSTDGATVSIPPGRYTARRYEIEPDASTASYFAAASAVSGRSFEFQGLGTDSIQGDTSFFNVLGRLGAEVHWAPNSVTISGPERLNGDIEVDMGEISDTFMTLAAIAPLADGPITITNIGHARLKESDRISAMETNLRTLGVQTDVGHDWMRIYPSTPHGGRVNCHRDHRIAMAFSILGLRVDGITLDDPQCVGKTFPGFFDYLGRLFPEKALTLPG
modifications: GRG23(L3P1.B20)
notes: mutation at V206
B2: grg23(L3P1B3): GRG23 variant, SEQ ID NO:23; D75→H, E217→K (protein)
chain: METDRLVIPGSKSITNRALLLAAAAKGTSVLVRPLVSADTSAFKTAIQALGANVSADGDNWVVEGLGQAPHLDAHIWCEDAGTVARFLPPFVAAGQGKFTVDGSEQLRRRPLRPLVDGIRHLGARVSSEQLPLTIEASGLAGGEYEIEAHQSSQFASGLIMAAPYARQGLRVRIPNPVSQPYLTMTLRMMRDFGLETSTDGATVSVPPGRYTARRYKIEPDASTASYFAAASAVSGRSFEFQGLGTDSIQGDTSFFNVLGRLGAEVHWAPNSVTISGPERLNGDIEVDMGEISDTFMTLAAIAPLADGPITITNIGHARLKESDRISAMETNLRTLGVQTDVGHDWMRIYPSTPHGGRVNCHRDHRIAMAFSILGLRVDGITLDDPQCVGKTFPGFFDYLGRLFPEKALTLPG
modifications: GRG23(L3P1.B3)
notes: D75→H, E217→K
B3: GRG23(L3P1.023): GRG23 variant, SEQ ID NO:27; R5→H (protein)
chain: METDHLVIPGSKSITNRALLLAAAAKGTSVLVRPLVSADTSAFKTAIQALGANVSADGDNWVVEGLGQAPHLDADIWCEDAGTVARFLPPFVAAGQGKFTVDGSEQLRRRPLRPLVDGIRHLGARVSSEQLPLTIEASGLAGGEYEIEAHQSSQFASGLIMAAPYARQGLRVRIPNPVSQPYLTMTLRMMRDFGLETSTDGATVSVPPGRYTARRYEIEPDASTASYFAAASAVSGRSFEFQGLGTDSIQGDTSFFNVLGRLGAEVHWAPNSVTISGPERLNGDIEVDMGEISDTFMTLAAIAPLADGPITITNIGHARLKESDRISAMETNLRTLGVQTDVGHDWMRIYPSTPHGGRVNCHRDHRIAMAFSILGLRVDGITLDDPQCVGKTFPGFFDYLGRLFPEKALTLPG
modifications: GRG23(L3P1.O23)
notes: R5→H
B4: GRG23(L3P1.F18): GRG23 variant, SEQ ID NO:25; T274→I (protein)
chain: METDRLVIPGSKSITNRALLLAAAAKGTSVLVRPLVSADTSAFKTAIQALGANVSADGDNWVVEGLGQAPHLDADIWCEDAGTVARFLPPFVAAGQGKFTVDGSEQLRRRPLRPLVDGIRHLGARVSSEQLPLTIEASGLAGGEYEIEAHQSSQFASGLIMAAPYARQGLRVRIPNPVSQPYLTMTLRMMRDFGLETSTDGATVSVPPGRYTARRYEIEPDASTASYFAAASAVSGRSFEFQGLGTDSIQGDTSFFNVLGRLGAEVHWAPNSVIISGPERLNGDIEVDMGEISDTFMTLAAIAPLADGPITITNIGHARLKESDRISAMETNLRTLGVQTDVGHDWMRIYPSTPHGGRVNCHRDHRIAMAFSILGLRVDGITLDDPQCVGKTFPGFFDYLGRLFPEKALTLPG
modifications: GRG23(L3P1.F18)
notes: T274→I

Each molecule was assayed on BL21*DE3 competent E. coli cells (assay: Selection for glyphosate resistance on M63+ plates containing 150 mM glyphosate). Settings: E. coli clones expressing the variant, 150 mM glyphosate plates.
Type: cell-based
Experimental: The mutagenized syngrg23 libraries were transformed into E. coli strain BL21*DE3 star (Invitrogen). Following transformation, individual colonies were plated on 1× M63 medium containing 150 mM glyphosate to select for clones that had retained enzymatic activity and growth tolerance.
Library ligations were transformed into BL21*DE3 competent E. coli cells (Invitrogen). The transformations were performed according to the manufacturer's instructions with the following modifications. After incubation for 1 hour at 37° C. in SOC medium, the cells were sedimented by centrifugation (5 minutes, 1000×g, 4° C.). The cells were washed with 1 ml M63+, centrifuged again, and the supernatant decanted. The cells were washed a second time with 1 ml M63+ and resuspended in 200 ul M63+.
The plates were incubated for 36 hours at 37° C.
Colonies identified on glyphosate plates were pinned into 96-well blocks containing LB medium and were grown to an O.D. of about 0.6. IPTG was then added (0.5 mM) and the blocks were incubated overnight at 20° C. to induce protein expression. Protein extracts were prepared from the cell pellets using POP culture reagent (Novagen) and Lysonase (Novagen), and the enzymatic activity in the crude lysates was measured after heating the extracts for 30 min at 37° C.

Molecule	glyphosate resistance (in words)
B1	retained glyphosate resistance
B2	retained glyphosate resistance
B3	retained glyphosate resistance
B4	retained glyphosate resistance
